Measured values: patent publication US20230416326A1 (LETO LABORATORIES, published 2023)
Residue numbers refer to the chain shown, from its start.

T1: IL2Rα-his (UniProt P01589 22-240, limits assumed)
T1 construct: Made in-house; also called interleukin-2 receptor alpha; CD25; not shown: his tag
T1 sequence (looked up): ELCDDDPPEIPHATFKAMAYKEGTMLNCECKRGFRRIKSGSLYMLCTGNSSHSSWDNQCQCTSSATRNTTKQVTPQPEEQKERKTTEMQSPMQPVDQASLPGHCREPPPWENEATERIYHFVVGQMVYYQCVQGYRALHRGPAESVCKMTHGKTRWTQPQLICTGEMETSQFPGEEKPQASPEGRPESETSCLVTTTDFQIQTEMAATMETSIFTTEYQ

T2: IL-2/15R β and γ on Mo7e cells (UniProt P14784 27-551; P31785 23-369, limits assumed)
T2 sequence (looked up) 1: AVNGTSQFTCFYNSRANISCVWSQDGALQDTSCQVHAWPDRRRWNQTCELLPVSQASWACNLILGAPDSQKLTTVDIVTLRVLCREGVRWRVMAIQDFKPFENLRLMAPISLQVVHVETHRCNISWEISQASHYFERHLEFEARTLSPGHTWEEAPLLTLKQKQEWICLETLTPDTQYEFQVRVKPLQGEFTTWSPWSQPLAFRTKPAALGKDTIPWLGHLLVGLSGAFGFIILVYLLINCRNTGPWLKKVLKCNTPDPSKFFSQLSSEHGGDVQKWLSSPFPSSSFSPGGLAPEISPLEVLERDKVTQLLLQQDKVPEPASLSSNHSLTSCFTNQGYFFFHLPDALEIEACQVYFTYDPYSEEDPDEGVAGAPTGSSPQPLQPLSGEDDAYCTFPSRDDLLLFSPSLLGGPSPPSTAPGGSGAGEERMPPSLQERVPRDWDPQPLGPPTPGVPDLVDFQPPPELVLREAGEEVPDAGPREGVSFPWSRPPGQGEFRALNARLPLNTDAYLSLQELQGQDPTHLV
T2 sequence (looked up) 2: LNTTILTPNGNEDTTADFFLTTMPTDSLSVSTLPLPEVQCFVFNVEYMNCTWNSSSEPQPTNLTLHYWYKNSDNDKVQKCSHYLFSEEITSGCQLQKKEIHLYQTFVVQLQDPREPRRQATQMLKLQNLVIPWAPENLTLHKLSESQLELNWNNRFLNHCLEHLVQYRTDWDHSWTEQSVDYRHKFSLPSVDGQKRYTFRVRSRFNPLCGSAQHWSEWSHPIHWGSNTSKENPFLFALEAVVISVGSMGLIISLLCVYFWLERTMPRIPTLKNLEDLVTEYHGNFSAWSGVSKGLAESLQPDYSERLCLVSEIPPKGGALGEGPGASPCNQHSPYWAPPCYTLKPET

B1: Complex 3 (heterodimer complex of IL-2/15 chimera 1 and Sushi-mIgG2aa.1Fc) (Fc fusion)
chain 1: APTSSSTKKTQLQLEHLLLDLQMILNGIQSMHIDATLYTESDVHPSCKVTAMKCFLLELQVISLESGDASIHDTVENLIILANNSLSSNGNVTESGCKECEELEEKNIVEFLNRFITFAQSIISTLT
chain 2: ITCPPPMSVEHADIWVKSYSLYSRERYICNSGFKRKAGTSSLTECVLNKATNVAHWTTPSLKCIREPRGPTIKPCPPCKCPAPNAEGAPSVFIFPPKIKDVLMISLSPIVTCVVVDVSEDDPDVQISWFVNNVEVHTAQTQTHREDYNSTLRVVSALPIQHQDWMSGKEFKCKVNNKQLPSSIERTISKPKGSVRAPQVYVLPPPEEEMTKKQVTLTCMVTDFMPEDIYVEWTNNGKTELNYKNTEPVLDSDGSYFMYSKLRVEKKNWVERNSYSCSVVHEGLHNHHTTKSFSRTPGK
notes: also called IL-2/15 chimera 1-Sushi-Fc
B2: IL-2/15 chimera 1 (ligand)
chain: B1 chain 1
notes: also called modified IL-2 molecule
B3: IL-2/15 chimera 2 (ligand)
chain: B1 chain 1 with F115W
notes: Chimera 1 with F at position 115 mutated back to W; position 115 corresponds to position 121 of natural IL-2

Columns and labels:
IL-15Rα-his = biological target: T3, IL-15Rα-his (Homo sapiens (Human), UniProt Q13261 31-205, limits assumed); test: BLI (Octet RED96), receptor immobilised on sensor
T3 construct: also called interleukin-15 receptor alpha; not shown: his tag
Description: (§1) BLI was used to determine the affinity of a target protein for a receptor by a method with reference to (Estep, P et al., High throughput solution Based measurement of antibody-antigen affinity and epitope binning. MAbs, 2013.5 (2): p. 270-8). The receptor proteins IL-15Rα-his, IL2Rα-his, and IL2/15Rβ-Fc/Fc used in the experiment were each produced by the company of the present application, and both an IL-2 derivative without IL2Rα binding and an IL-2 complex without IL2Rα binding were prepared according to the description in Patent Publication CN111018961A. An IL-15(N72D)/Sushi-hIgG1Fc complex was prepared according to the literature (K.-p. Han et al./Cytokine 56 (2011) 804-810). A buffer was prepared according to the following formula: 10 mM HEPES, 150 mM NaCl, 3 mM EDTA, 0.1% BSA, and 0.05% tween20. Receptor proteins were each pre-immobilized in advance on a corresponding sensor. Then the steps of baseline, loading, baseline, association, and dissociation were conducted according to the established method (see Estep, P et al., High throughput solution Based measurement of antibody-antigen affinity and epitope binning. MAbs, 2013. 5 (2): p. 270-8). Data acquisition and analysis were conducted using the Fortebio Octet RED96 software Data acquisition 11.0 and Data analysis 11.0, respectively. Results are shown in Table 1 (the smaller the value, the stronger the affinity).

IL2/15Rβ-Fc/Fc = biological target: T4, IL2/15Rβ-Fc/Fc (UniProt P14784 27-240); test: BLI (Octet RED96), receptor immobilised on sensor
T4 construct: Made in-house; The label 'Fc/Fc' is not explained; it is read here as one receptor-Fc chain paired with an Fc-only chain; also called IL2Rβ; CD122; not shown: Fc; second Fc chain implied by the label 'Fc/Fc'
Description: as §1

IL2Rα-his = biological target: T1, IL2Rα-his; test: BLI (Octet RED96), receptor immobilised on sensor
Description: as §1

[1] = biological target: T2, IL-2/15R β and γ on Mo7e cells; test: cell-based or functional assay
Sushi-hIgG4Fc = biological target: T5, Sushi-hIgG4Fc; test: co-expression in HEK293, purification, SEC-HPLC
T5 construct: IL15Rα Sushi domain fused to human IgG4 Fc; also called Sushi-Fc
Description: The IL-2/15 chimera 1 was co-expressed with each of the Sushi-hIgG1Fc, Sushi-hIgG4Fc, and Sushi-mlgg2aa.1Fc, and heterodimer complexes could be generated during expression, which were respectively named as complex 1, complex 2, and complex 3 and all carried an Fc tag. Mabselect sure (Protein A, GE healthcare) was used for affinity purification, and a purification method was in accordance with instructions of a purification packing. Then further purification was conducted by gel filtration chromatography (GFC) (Superdex200 […], GE Healthcare) to obtain a protein with high purity, and the aggregate was removed. The purity analysis was conducted using a high-performance liquid chromatography (HPLC) molecular sieve column (SEC-HPLC), and the results are shown in FIGS. 1A-1C.

Binder | binding result (IL-15Rα-his) | Kd (IL2/15Rβ-Fc/Fc) [nM] | binding result (IL2Rα-his) | EC50 (nM), promotion of Mo7e cell proliferation [1] [nM] | Kd (IL-15Rα-his) [nM] | binding result (Sushi-hIgG4Fc)
B1 | no binding (tested: 100 nM) | 0.512 | no binding (tested: 100 nM) | 0.319 |  | 
B2 |  | 973 | no binding (tested: 100 nM) | 2.25 | 3.89 | 
B3 |  |  |  |  |  | binds
